Measurements as given in article PMC8459022 (Frontiers in Plant Science, 2021).

B1: plant-produced Pembrolizumab (antibody, V domains shown)
VH: QVQLVQSGVEVKKPGASVKVSCKASGYTFTNYYMYWVRQAPGQGLEWMGGINPSNGGTNFNEKFKNRVTLTTDSSTTTAYMELKSLQFDDTAVYYCARRDYRFDMGFDYWGQGTTVTVSS
VL: EIVLTQSPATLSLSPGERATLSCRASKGVSTSGYSYLHWYQQKPGQAPRLLIYLASYLESGVPARFSGSGSGTDFTLTISSLEPEDFAVYYCQHSRDLPLTFGGGTKVEIK
notes: Pembrolizumab heavy chain; DrugBank DB09037; Pembrolizumab light chain (kappa); IgG4 kappa antibody; assembled as full IgG (150 kDa) by non-reducing SDS-PAGE and SEC; also called Pem WT; anti-human PD-1 monoclonal antibody produced in Nicotiana benthamiana; copies: 2 + 2
B2: commercial Pembrolizumab (Keytruda) (antibody, V domains shown)
VH: B1 VH
VL: B1 VL
notes: Pembrolizumab heavy chain; as the heavy chain of Wm1 without the C-terminal SEKDEL; Pembrolizumab light chain; as the light chain of Wm1; The commercial drug; also called mammalian cell-produced Pembrolizumab; source: bought: commercial Pembrolizumab (Keytruda), mammalian cell-produced
B3: Keytruda (mammalian cell-produced commercial Pembrolizumab) (antibody, V domains shown)
VH: B1 VH
VL: B1 VL
notes: Pembrolizumab heavy chain; as the heavy chain of m1 without the C-terminal SEKDEL; DrugBank DB09037; Pembrolizumab light chain; as the light chain of m1; Commercial drug product used as the positive control and comparator; source: bought: commercial Keytruda, mammalian cell-produced

Legend:
[1] = molecular target: T1, recombinant human PD-1 His tag protein (Homo sapiens, UniProt Q15116); test: SPR; Biacore T200, antibody (3 ug/ml) captured on protein G sensor chip in HBS-EP; single-cycle kinetics with human PD-1 His tag at 10, 20, 40, 80 and 160 nM, 30 ul/min, 60 s association, 120 s dissociation; Langmuir 1:1 model; conditions: both partners purified
T1 construct: human programmed cell death protein 1 (PD-1), recombinant, His tag; as recalled the catalogue product is the extracellular domain of PD-1 with a C-terminal His tag; also called programmed cell death protein 1; source: bought: R&D Systems (8986-PD)
T1 sequence (Q15116 25-170): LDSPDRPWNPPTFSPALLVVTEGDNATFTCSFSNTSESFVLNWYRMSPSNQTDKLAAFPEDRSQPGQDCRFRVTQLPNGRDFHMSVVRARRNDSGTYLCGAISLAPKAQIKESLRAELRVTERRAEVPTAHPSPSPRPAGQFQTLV

[2] = molecular target: T1, recombinant human PD-1 His tag protein; test: cell-based or functional assay
[3] = molecular target: T2, recombinant human PD-1 His tag protein (Homo sapiens, UniProt Q15116); test: SPR; Biacore T200; antibodies (3 ug/ml in HBS-EP) captured on a protein G sensor chip; human PD-1 His tag injected at 10, 20, 40, 80 and 160 nM, single-cycle kinetics, 30 ul/min, 60 s association, 120 s dissociation; Langmuir 1:1 model; conditions: both partners purified
T2 construct: programmed cell death protein 1 (PD-1), human; recombinant, R&D Systems 8986-PD; also called programmed cell death protein 1; source: bought: R&D Systems
T2 sequence (Q15116 25-170): as above

Row | Binder | Kd [1] | PD-1/PD-L1 blockade bioassay (luciferase reporter; Jurkat/PD-1 effector cells with CHO-K1/PD-L1 cells, 6 h); EC50 of blocking PD-1 with PD-L1 [2] | koff [3] | kon [3]
1 | B1 | 8.51 nM | 0.147 µg/mL |  | 
2 | B2 |  |  | 0.00339 s⁻¹ | 410000 M⁻¹ s⁻¹
3 | B3 | 8.26 nM | 0.147 µg/mL |  | 
